# Experimental data from US20200317768A1 (published 2020).
# Where a chain is given by its changes, count along the chain named. Names may count otherwise.
# T1: human FcγRIIaH extracellular domain with C-terminal His-tag (human, UniProt P12318 34-217)
# T1 construct: Expressed in FreeStyle 293 cells and purified; also called human FcγRIIa (type H); FcgRIIaH; not shown: C-terminal His-tag
# T1 sequence: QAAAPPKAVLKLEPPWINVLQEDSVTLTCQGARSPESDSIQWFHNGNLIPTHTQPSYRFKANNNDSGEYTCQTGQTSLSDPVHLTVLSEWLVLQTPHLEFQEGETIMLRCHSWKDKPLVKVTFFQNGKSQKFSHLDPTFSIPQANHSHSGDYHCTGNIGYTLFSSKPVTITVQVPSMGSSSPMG
# T2: cynomolgus monkey FcγRIIa2 extracellular domain with C-terminal His-tag (cynomolgus monkey)
# T2 construct: Expressed in FreeStyle 293 cells and purified; also called cyno FcγRIIa2; cynoFcgRIIa2; not shown: C-terminal His-tag
# T2 chain: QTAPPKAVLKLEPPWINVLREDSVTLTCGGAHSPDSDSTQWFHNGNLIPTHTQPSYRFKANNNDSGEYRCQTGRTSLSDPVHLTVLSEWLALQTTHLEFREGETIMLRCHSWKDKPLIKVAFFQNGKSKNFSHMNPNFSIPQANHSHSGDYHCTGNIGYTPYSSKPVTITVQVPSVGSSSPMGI
# T3: cynomolgus monkey FcγRIIIaS extracellular domain with C-terminal His-tag (cynomolgus monkey, UniProt Q8SPW2 21-206 at identity 1.00))
# T3 construct: Expressed in FreeStyle 293 cells and purified; also called cyno FcγRIIIaS; cynoFcγRIIIaS; not shown: C-terminal His-tag
# T3 chain: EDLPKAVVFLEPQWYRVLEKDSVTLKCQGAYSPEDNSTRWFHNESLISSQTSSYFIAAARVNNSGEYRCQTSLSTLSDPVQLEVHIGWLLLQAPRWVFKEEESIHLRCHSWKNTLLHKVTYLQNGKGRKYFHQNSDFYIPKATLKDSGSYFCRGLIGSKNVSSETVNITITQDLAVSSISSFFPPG
# T4: human FcγRIIb extracellular domain with C-terminal His-tag (human, UniProt P31994 43-217)
# T4 construct: Expressed in FreeStyle 293 cells and purified; also called humanFcgRIIb; not shown: C-terminal His-tag
# T4 sequence: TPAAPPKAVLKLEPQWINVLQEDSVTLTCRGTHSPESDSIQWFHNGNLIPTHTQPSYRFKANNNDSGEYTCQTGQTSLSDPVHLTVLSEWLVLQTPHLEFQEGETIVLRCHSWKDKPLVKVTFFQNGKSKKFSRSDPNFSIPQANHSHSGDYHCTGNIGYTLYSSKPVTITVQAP
# T5: cynomolgus monkey FcγRIIa1 extracellular domain with C-terminal His-tag (cynomolgus monkey)
# T5 construct: Expressed in FreeStyle 293 cells and purified; also called cyno FcγRIIa1; cynoFcgRIIa1; not shown: C-terminal His-tag
# T5 chain: T2 chain with T95P, A121T, K127I, S128A, N130K, N135D, Q142R
# T6: human FcγRIIaR extracellular domain with C-terminal His-tag (human, UniProt P12318 34-217)
# T6 construct: Expressed in FreeStyle 293 cells and purified; also called human FcγRIIa (type R); FcgRIIaR; not shown: C-terminal His-tag
# T6 chain: T1 sequence with H134R
# T7: cynomolgus monkey FcγRIIb extracellular domain with C-terminal His-tag (cynomolgus monkey)
# T7 construct: Expressed in FreeStyle 293 cells and purified; also called cyno FcγRIIb; cynoFcγRIIb; not shown: C-terminal His-tag
# T7 chain: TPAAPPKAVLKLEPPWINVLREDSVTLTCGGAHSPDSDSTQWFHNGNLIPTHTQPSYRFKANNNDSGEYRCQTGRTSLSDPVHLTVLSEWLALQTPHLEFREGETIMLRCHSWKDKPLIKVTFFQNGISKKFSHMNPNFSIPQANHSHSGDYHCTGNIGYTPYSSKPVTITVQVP
# T8: cynomolgus monkey FcγRIIa3 extracellular domain with C-terminal His-tag (cynomolgus monkey)
# T8 construct: Expressed in FreeStyle 293 cells and purified; also called cyno FcγRIIa3; cynoFcgRIIa3; not shown: C-terminal His-tag
# T8 chain: T2 chain with K127I, N130K, H133P, Q142R
# B1: M103205H795-MY210 / M103202L889-SK1 (antibody, human IgG1, kappa)
# heavy: QVTLKESGPVLVKPTETLTLTCTVSGIDLSHDDISWVRQAPGKGLEWVGIISYAGSTYYASWAKGRLTISKDTSKNQVVLTMTNMDPVDTATYYCARGVPAYSHGGDLWGQGTLVTVSSASTKGPSVFPLAPSSKSTSGGTAALGCLVKDYFPEPVTVSWNSGALTSGVHTFPAVLQSSGLYSLSSVVTVPSSSLGTQTYICNVNHKPSNTKVDKKVEPKSCDKTHTCPPCPAPELLNGPSVFLFPPKPKDTLMISRTPEVTCVVVDVSDEDPEVKFNWYVDGVEVHNAKTKPREEQYNSTYRVVSVLTVLHQDWLNGKEYKCKVSNTALPKPIEKTISKAKGQPREPQVYTLPPSREEMTKNQVSLTCLVKGFYPSDIAVEWESNGQPENNYKTTPPVLDSDGSFFLYSKLTVDKSRWQQGNVFSCSVMHEALHNHYTQKSLSLSP
# light: DIVMTQSPATLSLSPGERATLSCTSSQSVYHANWLSWFQQKPGQPPKLLIYWASTLAYGVPSRFSGSGSGTDFTLTISSLQPEDAATYYCAGGYGGGRYAFGQGTKVEIKRTVAAPSVFIFPPSDEQLKSGTASVVCLLNNFYPREAKVQWKVDNALQSGNSQESVTEQDSKDSTYSLSSTLTLSKADYEKHKVYACEVTHQGLSSPVTKSFNRGEC
# notes: Fc variant of M103205H795-SG1, expressed with M103202L889-SK1 as light chain
# B2: M103205H795-MY440 / M103202L889-SK1 (antibody, human IgG1, kappa)
# heavy: B1 heavy with L237W, Q297L, T328K
# light: B1 light
# notes: as for B1
# B3: M103205H795-MY289 / M103202L889-SK1 (antibody, human IgG1, kappa)
# heavy: B1 heavy with D270H, T328K, P398M
# light: B1 light
# notes: as for B1
# B4: M103205H795-MY330 / M103202L889-SK1 (antibody, human IgG1, kappa)
# heavy: B1 heavy with L237W, D270E, T328K, P398M
# light: B1 light
# notes: as for B1
# B5: M103205H795-MY288 / M103202L889-SK1 (antibody, human IgG1, kappa)
# heavy: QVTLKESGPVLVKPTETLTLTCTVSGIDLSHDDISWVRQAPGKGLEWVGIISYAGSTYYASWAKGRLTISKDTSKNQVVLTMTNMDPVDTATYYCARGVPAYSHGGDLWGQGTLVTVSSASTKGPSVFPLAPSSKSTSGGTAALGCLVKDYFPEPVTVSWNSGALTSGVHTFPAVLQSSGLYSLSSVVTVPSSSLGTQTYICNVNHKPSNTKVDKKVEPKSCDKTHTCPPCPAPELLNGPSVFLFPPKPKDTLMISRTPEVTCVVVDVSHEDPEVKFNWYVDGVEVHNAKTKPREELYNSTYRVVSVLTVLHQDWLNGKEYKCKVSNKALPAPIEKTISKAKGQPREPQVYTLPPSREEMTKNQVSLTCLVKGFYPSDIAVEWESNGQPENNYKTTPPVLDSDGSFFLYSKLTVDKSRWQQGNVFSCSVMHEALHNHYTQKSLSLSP
# light: B1 light
# notes: as for B1
# B6: M103205H795-MY538 (Table 19; L235W/G236N/H268D/Q295L/K326T/A330K) / M103202L889-SK1 (antibody, human IgG1, kappa)
# heavy: B1 heavy with L237W, Q297L
# light: B1 light
# notes: Fc variant of M103205H795-SG1, expressed with M103202L889-SK1; the text names MY518 for this set of substitutions; also called probably MY518 of the text
# B7: M103205H795-MY434 / M103202L889-SK1 (antibody, human IgG1, kappa)
# heavy: B1 heavy with L237W, T328K
# light: B1 light
# notes: as for B1
# B8: M103205H795-MY211 / M103202L889-SK1 (antibody, human IgG1, kappa)
# heavy: B1 heavy with S241V
# light: B1 light
# notes: as for B1
# B9: M103205H795-MY212 / M103202L889-SK1 (antibody, human IgG1, kappa)
# heavy: B1 heavy with S241V, Q297L
# light: B1 light
# notes: as for B1
# Biological target: T1, human FcγRIIaH extracellular domain …
# Experiment: SPR (Biacore); KD of SG1 divided by KD of the variant for this FcgR;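 further: relative to parent M103205H795-SG1 carrying the SG1 human heavy chain constant region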
row,Binder,KD fold (SG1 = 1) [fold]
1,B1,0.6
2,B2,0.8
3,B3,0.3
4,B4,0.7
5,B5,0.5
6,B6,0.8
7,B7,0.4
8,B8,0.6
9,B9,0.9

# Biological target: T2, cynomolgus monkey FcγRIIa2 …
# Experiment: as above
row,Binder,KD fold (SG1 = 1) [fold]
1,B1,8.1
2,B2,2.8
3,B3,3.4
4,B4,2.3
5,B5,2.6
6,B6,5.7
7,B7,2.1
8,B8,3.8
9,B9,9.6

# Biological target: T3, cynomolgus monkey FcγRIIIaS …
# Experiment: as above
row,Binder,KD fold (SG1 = 1) [fold]
1,B1,0.15
2,B2,0.04
3,B3,0.07
4,B4,0.05
5,B5,0.08
6,B6,0.09
7,B7,0.03
8,B8,0.12
9,B9,0.14

# Biological target: T4, human FcγRIIb extracellular domain with …
# Experiment: as above
row,Binder,KD fold (SG1 = 1) [fold]
1,B1,4.7
2,B2,5.8
3,B3,1.6
4,B4,6.9
5,B5,0.9
6,B6,9.6
7,B7,3.3
8,B8,5.6
9,B9,7.3

# Biological target: T5, cynomolgus monkey FcγRIIa1 …
# Experiment: as above
row,Binder,KD fold (SG1 = 1) [fold]
1,B1,3.4
2,B2,2
3,B3,2.5
4,B4,1.5
5,B5,2.1
6,B6,3.6
7,B7,1.1
8,B8,4.3
9,B9,5.7

# Biological target: T6, human FcγRIIaR extracellular domain …
# Experiment: as above
row,Binder,KD fold (SG1 = 1) [fold]
1,B1,0.8
2,B2,1
3,B3,0.8
4,B4,1.2
5,B5,0.1
6,B6,1.6
7,B7,0.6
8,B8,0.8
9,B9,0.8

# Biological target: T9, human FcγRIIIaV extracellular domain with C-terminal His-tag (human, UniProt P08637 17-208)
# T9 construct: Expressed in FreeStyle 293 cells and purified; also called FcgRIIIaV; not shown: C-terminal His-tag
# Experiment: as above
# T9 sequence (P08637 17-208 F176V): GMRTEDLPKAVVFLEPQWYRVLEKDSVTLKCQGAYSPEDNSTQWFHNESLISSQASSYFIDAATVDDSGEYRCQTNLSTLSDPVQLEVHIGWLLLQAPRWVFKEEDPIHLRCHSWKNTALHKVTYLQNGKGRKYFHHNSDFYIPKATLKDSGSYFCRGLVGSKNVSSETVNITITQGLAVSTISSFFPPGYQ
row,Binder,KD fold (SG1 = 1) [fold]
1,B1,0.05
2,B2,0.05
3,B3,0.11
4,B4,0.07
5,B5,0.01
6,B6,0.04
7,B7,0.05
8,B8,0.17
9,B9,0.12

# Biological target: T7, cynomolgus monkey FcγRIIb extracellular …
# Experiment: as above
row,Binder,KD fold (SG1 = 1) [fold]
1,B1,6.4
2,B2,5.9
3,B3,2.4
4,B4,3
5,B5,3.5
6,B6,6.9
7,B7,2.4
8,B8,3.8
9,B9,4.9

# Biological target: T8, cynomolgus monkey FcγRIIa3 …
# Experiment: as above
row,Binder,KD fold (SG1 = 1) [fold]
1,B1,7.4
2,B2,3.5
3,B3,2
4,B4,3.6
5,B5,3.6
6,B6,7.1
7,B7,2.7
8,B8,6.3
9,B9,5.9
